Patent publication US8097440B1, “Engineered microorganisms capable of producing target compounds under anaerobic conditions” (Gevo, Inc., priority 2008, dated 2012)

Columns and labels:
[1] = target: T1, E. coli KARI Ec_IlvC variant Ec_IlvC^P2D1-A1-his6 (Ec_IlvC^P2D1-his6 with K433E), SEQ ID NO: 42 (Escherichia coli, UniProt P05793, A71S/D146G/G185R/K433E/Q110V/R76D/S78D); assay: KARI assay, purified Ec_IlvC^P2D1-A1-his6; format: biochemical; settings: expressed in yeast GEVO1186, purified
T1 sequence (P05793 with tags, fused parts or gaps A71S/R76D/S78D/Q110V/D146G/G185R/K433E): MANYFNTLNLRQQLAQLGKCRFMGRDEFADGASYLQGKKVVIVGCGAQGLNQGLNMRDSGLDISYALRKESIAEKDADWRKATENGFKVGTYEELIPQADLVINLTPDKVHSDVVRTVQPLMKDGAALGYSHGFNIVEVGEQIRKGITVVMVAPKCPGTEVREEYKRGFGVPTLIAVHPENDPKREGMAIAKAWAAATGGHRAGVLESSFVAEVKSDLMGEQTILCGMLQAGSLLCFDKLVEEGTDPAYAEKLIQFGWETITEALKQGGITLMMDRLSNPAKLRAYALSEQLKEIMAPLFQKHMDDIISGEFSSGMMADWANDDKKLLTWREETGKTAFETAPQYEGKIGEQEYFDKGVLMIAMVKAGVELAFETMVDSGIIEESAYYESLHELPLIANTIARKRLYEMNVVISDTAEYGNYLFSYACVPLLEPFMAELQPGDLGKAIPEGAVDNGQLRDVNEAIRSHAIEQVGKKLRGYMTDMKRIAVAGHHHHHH
Method: (§1) KARI cuvette assay: KARI activity was assayed kinetically by monitoring the decrease in NAD(P)H concentration by measuring the absorbance at 340 nm. A reaction buffer was prepared containing 250 mM potassium phosphate pH 7, 1 mM DTT and 10 mM MgCl2. Cell pellets were resuspended (0.25 g wet weight/mL buffer) in 250 mM potassium phosphate (KPi) buffer containing 1 mM DTT and 10 mM MgCl2. The resuspended cells were lysed by sonication for 1 min with a 50% duty cycle and pelleted at 11000×g and 4° C. for 15 min. A reaction mixture consisting of 910 μl reaction buffer, 50 μl acetolactate, and 20 μl lysate was prepared in a cuvette. The reaction was initiated by addition of 20 μL of 10 mM NAD(P)H. A substrate free control was conducted using reaction buffer without the addition of acetolactate.
(§2) Purification of KARI: Cell pellets used for purification were resuspended in purification buffer A (20 mM Tris, 20 mM imidazol, 100 mM NaCl, 10 mM MgCl2, pH 7.4). KARI was purified by IMAC (Immobilized metal affinity chromatography) over a 1 ml Histrap High Performance (histrap HP) column pre-charged with Nickel (GE Healthcare) using an Akta FPLC system (GE Healthcare). […]

[2] = tested on: Lactococcus lactis alcohol dehydrogenase Ll_AdhA, SEQ ID NO: 67; settings: NADPH as cofactor; cited from earlier work
[3] = target: T2, Escherichia coli KARI (ketol-acid reductoisomerase) Ec_IlvC^his6, wild type IlvC (SEQ ID NO: 13) with his6-tag, SEQ ID NO: 15 (Escherichia coli, UniProt P05793); assay: KARI cuvette assay, purified Ec_IlvC^his6 (parent / wild type); format: biochemical, E. coli; settings: purified; acetolactate as substrate
T2 sequence (P05793 with tags, fused parts or gaps): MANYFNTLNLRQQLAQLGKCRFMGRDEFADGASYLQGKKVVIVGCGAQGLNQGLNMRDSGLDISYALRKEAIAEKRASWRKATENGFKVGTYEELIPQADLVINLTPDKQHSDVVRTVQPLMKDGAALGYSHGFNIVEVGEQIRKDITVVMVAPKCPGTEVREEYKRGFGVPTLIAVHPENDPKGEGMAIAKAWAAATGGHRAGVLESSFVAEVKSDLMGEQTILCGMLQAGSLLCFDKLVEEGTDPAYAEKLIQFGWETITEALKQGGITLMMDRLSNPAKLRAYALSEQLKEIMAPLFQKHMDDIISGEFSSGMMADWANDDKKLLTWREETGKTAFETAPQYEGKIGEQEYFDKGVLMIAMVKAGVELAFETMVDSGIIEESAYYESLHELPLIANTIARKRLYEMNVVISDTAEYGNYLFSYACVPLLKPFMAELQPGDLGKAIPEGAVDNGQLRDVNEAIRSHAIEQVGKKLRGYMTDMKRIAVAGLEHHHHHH
Method: as §1, with “The reaction was initiated by addition of 20 μL of 10 mM NAD(P)H. A substrate free control was conducted using reaction buffer without the addition of acetolactate.” left out
Only 20% of the enzymes of the recombination library were active on NADH. After screening 1,000 clones using the NADH depletion assay at 340 nm, 26 KARI variants were selected for a rescreen by the high-throughput assay described in Example 14 and eight thereof were expressed in 25 ml LBamp medium in shake flasks according to the protocol for cell growth and protein expression in shake flasks as described in Example 14, purified according to the protocol for purification of KARI enzymes as described in Example 14, and NAD(P)H depletion at 340 nm was measured again. […] The KM values of variants Ec_llvC^2H10-his6 and Ec_llvC^6E6-his6 were measured and the catalytic efficiencies were calculated.

[4] = target: T3, E. coli KARI Ec_IlvC variant Ec_IlvC^S78D-his6 (S78D), SEQ ID NO: 17 (Escherichia coli, UniProt P05793, S78D); assay: KARI cuvette assay, purified Ec_IlvC^S78D-his6; format: biochemical; settings: from 1075 μM to 130 μM
T3 sequence (P05793 with tags, fused parts or gaps S78D): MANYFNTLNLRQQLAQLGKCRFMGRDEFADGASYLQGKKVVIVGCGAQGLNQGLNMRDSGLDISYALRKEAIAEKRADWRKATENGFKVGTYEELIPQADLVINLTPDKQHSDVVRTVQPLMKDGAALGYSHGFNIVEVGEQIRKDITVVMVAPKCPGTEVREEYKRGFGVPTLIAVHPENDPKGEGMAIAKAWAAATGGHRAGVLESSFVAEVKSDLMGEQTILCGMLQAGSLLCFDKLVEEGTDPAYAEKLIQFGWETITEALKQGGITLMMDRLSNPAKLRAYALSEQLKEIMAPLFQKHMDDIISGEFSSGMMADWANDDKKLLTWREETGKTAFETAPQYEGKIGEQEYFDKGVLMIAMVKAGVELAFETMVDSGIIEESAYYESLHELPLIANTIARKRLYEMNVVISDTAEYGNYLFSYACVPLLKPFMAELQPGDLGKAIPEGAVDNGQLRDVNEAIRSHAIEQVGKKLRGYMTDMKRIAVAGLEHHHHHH
Method: as §1, §2

[5] = substrate: NC(=O)C1=CN([C@@H]2O[C@H](COP(=O)(O)OP(=O)(O)OC[C@H]3O[C@@H](n4cnc5c(N)ncnc54)[C@H](O)[C@@H]3O)[C@@H](O)[C@H]2O)C=CC1; assay: KARI cuvette assay, purified Ec_IlvC^S78D-his6; format: biochemical, E. coli
Method: as §1
(§3) Purification of KARI: Cell pellets used for purification were resuspended in purification buffer A (20 mM Tris, 20 mM imidazol, 100 mM NaCl, 10 mM MgCl2, pH 7.4). KARI was purified by IMAC (Immobilized metal affinity chromatography) over a 1 ml Histrap High Performance (histrap HP) column pre-charged with Nickel (GE Healthcare) using an Akta FPLC system (GE Healthcare). The column was equilibrated with four column volumes (cv) of buffer A. After injecting the crude extract, the column was washed with buffer A for 2 cv, followed by a wash step with a mixture of 10% elution buffer B (20 mM Tris, 300 mM imidazol, 100 mM NaCl, 10 mM MgCl2, pH 7.4) for 5 cv. KARI variants were eluted at 40% buffer B and stored at 4° C.
(§4) Five individual site saturation libraries were generated and electro-competent E. coli BL21(DE3) cells were transformed with the desalted ligation mixtures. 88 clones of each library were screened for NAD(P)H depletion at 340 nm in microplates. Clones with an improved NADH/NADPH consumption ratio while maintaining or increasing their NADH activity were chosen for a rescreen. Variants that passed the rescreen were sequenced, expressed in shake flasks, purified, and characterized. […]

[6] = substrate: NC(=O)C1=CN([C@@H]2O[C@H](COP(=O)(O)OP(=O)(O)OC[C@H]3O[C@@H](n4cnc5c(N)ncnc54)[C@H](OP(=O)(O)O)[C@@H]3O)[C@@H](O)[C@H]2O)C=CC1; assay: KARI cuvette assay, purified Ec_IlvC^S78D-his6; format: biochemical, E. coli; settings: other: purified
Method: as §1, §3, §4

[7] = substrate: NC(=O)C1=CN([C@@H]2O[C@H](COP(=O)(O)OP(=O)(O)OC[C@H]3O[C@@H](n4cnc5c(N)ncnc54)[C@H](O)[C@@H]3O)[C@@H](O)[C@H]2O)C=CC1; assay: KARI cuvette assay, purified Ec_IlvC^Q110V-his6; format: biochemical, E. coli
Method: as §1, §2

[8] = substrate: NC(=O)C1=CN([C@@H]2O[C@H](COP(=O)(O)OP(=O)(O)OC[C@H]3O[C@@H](n4cnc5c(N)ncnc54)[C@H](O)[C@@H]3O)[C@@H](O)[C@H]2O)C=CC1; assay: KARI cuvette assay, purified Ec_IlvC^Q110A-his6; format: biochemical, E. coli
Method: as §1, §2

[9] = other: purified, acetolactate as substrate

For NC(=O)C1=CN([C@@H]2O[C@H](COP(=O)(O)OP(=O)(O)OC[C@H]3O[C@@H](n4cnc5c(N)ncnc54)[C@H](OP(=O)(O)O)[C@@H]3O)[C@@H](O)[C@H]2O)C=CC1 [NADPH, nicotinamide adenine dinucleotide phosphate], the Km [1] is listed as greater than 1430 µM, the kcat/KM [1] is listed as less than 377 M^−1 * S^−1 and the “activity when tested with NADPH as a cofactor” value [2] is listed as “^adid not show any detectably activity when tested with NADPH as a cofactor”. The kcat/KM [3] was 87,300 M^−1 * s^−1 and the “decrease of KM value compared to wild-type” value [4] was 16 fold.

B1: E. coli KARI Ec_IlvC variant Ec_IlvC^S78D-his6 (S78D), SEQ ID NO: 17 (Escherichia coli K-12; S78D) (protein)
chain: MANYFNTLNLRQQLAQLGKCRFMGRDEFADGASYLQGKKVVIVGCGAQGLNQGLNMRDSGLDISYALRKEAIAEKRADWRKATENGFKVGTYEELIPQADLVINLTPDKQHSDVVRTVQPLMKDGAALGYSHGFNIVEVGEQIRKDITVVMVAPKCPGTEVREEYKRGFGVPTLIAVHPENDPKGEGMAIAKAWAAATGGHRAGVLESSFVAEVKSDLMGEQTILCGMLQAGSLLCFDKLVEEGTDPAYAEKLIQFGWETITEALKQGGITLMMDRLSNPAKLRAYALSEQLKEIMAPLFQKHMDDIISGEFSSGMMADWANDDKKLLTWREETGKTAFETAPQYEGKIGEQEYFDKGVLMIAMVKAGVELAFETMVDSGIIEESAYYESLHELPLIANTIARKRLYEMNVVISDTAEYGNYLFSYACVPLLKPFMAELQPGDLGKAIPEGAVDNGQLRDVNEAIRSHAIEQVGKKLRGYMTDMKRIAVAGLEHHHHHH
With B1 the kcat/Km [5, 9] was 27,600 M^−1 * s^−1, the kcat/Km ([5]; with NADH) was 3770 M⁻¹ s⁻¹ and the Km [6] was 130 µM.

B2: E. coli KARI Ec_IlvC variant Ec_IlvC^Q110V-his6 (Q110V), SEQ ID NO: 23 (Escherichia coli K-12; Q110V) (protein)
chain: MANYFNTLNLRQQLAQLGKCRFMGRDEFADGASYLQGKKVVIVGCGAQGLNQGLNMRDSGLDISYALRKEAIAEKRASWRKATENGFKVGTYEELIPQADLVINLTPDKVHSDVVRTVQPLMKDGAALGYSHGFNIVEVGEQIRKDITVVMVAPKCPGTEVREEYKRGFGVPTLIAVHPENDPKGEGMAIAKAWAAATGGHRAGVLESSFVAEVKSDLMGEQTILCGMLQAGSLLCFDKLVEEGTDPAYAEKLIQFGWETITEALKQGGITLMMDRLSNPAKLRAYALSEQLKEIMAPLFQKHMDDIISGEFSSGMMADWANDDKKLLTWREETGKTAFETAPQYEGKIGEQEYFDKGVLMIAMVKAGVELAFETMVDSGIIEESAYYESLHELPLIANTIARKRLYEMNVVISDTAEYGNYLFSYACVPLLKPFMAELQPGDLGKAIPEGAVDNGQLRDVNEAIRSHAIEQVGKKLRGYMTDMKRIAVAGLEHHHHHH
B2 gave a kcat/Km [7, 9] of 24800 M⁻¹ s⁻¹ and a kcat/Km ([7]; with NADH) of 569000 M⁻¹ s⁻¹.

B3: E. coli KARI Ec_IlvC variant Ec_IlvC^Q110A-his6 (Q110A), SEQ ID NO: 21 (Escherichia coli K-12; Q110A) (protein)
chain: MANYFNTLNLRQQLAQLGKCRFMGRDEFADGASYLQGKKVVIVGCGAQGLNQGLNMRDSGLDISYALRKEAIAEKRASWRKATENGFKVGTYEELIPQADLVINLTPDKAHSDVVRTVQPLMKDGAALGYSHGFNIVEVGEQIRKDITVVMVAPKCPGTEVREEYKRGFGVPTLIAVHPENDPKGEGMAIAKAWAAATGGHRAGVLESSFVAEVKSDLMGEQTILCGMLQAGSLLCFDKLVEEGTDPAYAEKLIQFGWETITEALKQGGITLMMDRLSNPAKLRAYALSEQLKEIMAPLFQKHMDDIISGEFSSGMMADWANDDKKLLTWREETGKTAFETAPQYEGKIGEQEYFDKGVLMIAMVKAGVELAFETMVDSGIIEESAYYESLHELPLIANTIARKRLYEMNVVISDTAEYGNYLFSYACVPLLKPFMAELQPGDLGKAIPEGAVDNGQLRDVNEAIRSHAIEQVGKKLRGYMTDMKRIAVAGLEHHHHH
With B3 the kcat/Km [8, 9] was 11100 M⁻¹ s⁻¹ and the kcat/Km ([8]; with NADH) was 302000 M⁻¹ s⁻¹.
